Source: patent US20220177587A1, “METHODS AND USES OF VARIANT CD80 FUSION PROTEINS AND RELATED CONSTRUCTS” (Alpine Immune Sciences, Inc., priority 2018, published 2022)

Legend:
[1] = target: CD28 (human) (UniProt P10747)
[2] = target: PD-L1 (human) (UniProt Q9NZQ7)
[3] = target: CD28 (human) (UniProt P10747); experiment: flow cytometry, Jurkat cells (CD28)
[4] = target: PD-L1 (human) (UniProt Q9NZQ7); experiment: flow cytometry, CHO cells expressing PD-L1

Chain of PD-L1 (human) (Q9NZQ7 19-290): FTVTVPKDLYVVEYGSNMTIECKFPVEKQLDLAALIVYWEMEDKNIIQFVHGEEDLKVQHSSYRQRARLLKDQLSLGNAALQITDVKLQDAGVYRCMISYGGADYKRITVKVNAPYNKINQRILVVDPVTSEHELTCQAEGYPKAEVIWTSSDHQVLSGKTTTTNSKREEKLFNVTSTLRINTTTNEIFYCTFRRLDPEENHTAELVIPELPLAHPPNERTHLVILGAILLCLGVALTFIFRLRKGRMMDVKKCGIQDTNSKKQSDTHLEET

| Substance | Jurkat/IL2 reporter RLU at 50 nM, K562/OKT3/PD-L1 aAPC [1] | Jurkat/IL2 reporter RLU at 50 nM, K562/OKT3/PD-L1 aAPC [2] | MFI at 33.3 nM [3] | MFI at 33.3 nM [4] |
| --- | --- | --- | --- | --- |
| CD80 Q33L/E35D/M47V/T79A IgV-Fc (inert) (Fc fusion) | 527 RLU | 527 RLU | – | – |
| CD80 E35D/M47V/A71G/L85M/L97Q IgV-Fc (inert) (Fc fusion) | 576 RLU | 576 RLU | – | – |
| CD80 Q33K/E35D/M47V/K89E/K93R IgV-Fc (inert) (Fc fusion) | 415 RLU | 415 RLU | – | – |
| CD80 E35D/M47L/A71G/L97Q IgV-Fc (inert) (Fc fusion) | 2160 RLU | 2160 RLU | – | – |
| CD80 Q33L/E35D/M47L/V68M/L85Q/E88D IgV-Fc (inert) (Fc fusion) | 572 RLU | 572 RLU | – | – |
| CD80 Q33L/E35D/M43V/M47I/A71G IgV-Fc (inert) (Fc fusion) | 473 RLU | 473 RLU | – | – |
| CD80 T13R/E35D/M47L/V68M IgV-Fc (Fc fusion) | – | – | 15.6 MFI | 20000 MFI |
| CD80 H18Y/E35D/V68M/L97Q IgV-Fc (inert) (Fc fusion) | 4340 RLU | 4340 RLU | – | – |
| CD80 Q33K/E35D/D46V/L85Q IgV-Fc (inert) (Fc fusion) | 504 RLU | 504 RLU | – | – |
| CD80 Q27H/E35D/M47L/L85Q/R94Q/E95K IgV-Fc (inert) (Fc fusion) | 513 RLU | 513 RLU | – | – |
| CD80 Y31S/E35D/M47L/T79L/E88G IgV-Fc (inert) (Fc fusion) | 496 RLU | 496 RLU | – | – |
| CD80 Q33L/E35D/N48K/L85Q/L97Q IgV-Fc (inert) (Fc fusion) | 358 RLU | 358 RLU | – | – |
| CD80 Q33L/E35D/M43I/L85Q/R94W IgV-Fc (inert) (Fc fusion) | 553 RLU | 553 RLU | – | – |
| CD80 Q33R/E35D/K37E/M47V/L85Q IgV-Fc (inert) (Fc fusion) | 464 RLU | 464 RLU | – | – |
| CD80 Q33L/E35D/T41S/M47V IgV-Fc (inert) (Fc fusion) | 481 RLU | 481 RLU | – | – |
| CD80 A26E/Q33R/E35D/M47L/L85Q/K86E IgV-Fc (inert) (Fc fusion) | 569 RLU | 569 RLU | – | – |
| CD80 A26E/Q33L/E35D/M47L IgV-Fc (inert) (Fc fusion) | 476 RLU | 476 RLU | – | – |
| CD80 A26E/Q33L/E35D/M47L/L85Q IgV-Fc (inert) (Fc fusion) | 416 RLU | 416 RLU | – | – |
| CD80 Q33L/E35D/M47I/T62N/L85Q IgV-Fc (inert) (Fc fusion) | 463 RLU | 463 RLU | – | – |
| CD80 Q33R/E35D/D46E/M47I IgV-Fc (inert) (Fc fusion) | 522 RLU | 522 RLU | – | – |
| CD80 Q33L/E35D/M47L/A71G/F92S IgV-Fc (inert) (Fc fusion) | 394 RLU | 394 RLU | – | – |
| CD80 E35D/M47I/E77A/L85Q/R94W IgV-Fc (inert) (Fc fusion) | 473 RLU | 473 RLU | – | – |

| Substance | Jurkat/IL2 reporter RLU at 50 nM, K562/OKT3/PD-L1 aAPC [1] | Jurkat/IL2 reporter RLU at 50 nM, K562/OKT3/PD-L1 aAPC [2] | MFI at 33.3 nM [3] | MFI at 33.3 nM [4] |
| --- | --- | --- | --- | --- |
| CD80 S15P/Q33L/E35D/M47L/L85Q IgV-Fc (inert) (Fc fusion) | 468 RLU | 468 RLU | – | – |
| CD80 E35D/M47I/V68M/Y87N IgV-Fc (Fc fusion) | – | – | – | 13100 MFI |
| CD80 E35D/M47V/T62A/A71G/V83A/Y87H/L97M IgV-Fc (inert) (Fc fusion) | 438 RLU | 438 RLU | – | – |
| CD80 E35D/D46E/M47L/V68M/T79M/L85M IgV-Fc (Fc fusion) | – | – | 403 MFI | 8640 MFI |
| CD80 Q33L/E35D/M47V/L85Q IgV-Fc (inert) (Fc fusion) | 556 RLU | 556 RLU | – | – |
| CD80 Q33L/E35D/D46E/M47I IgV-Fc (inert) (Fc fusion) | 554 RLU | 554 RLU | – | – |
| CD80 Q33L/E35D/M47I/L85Q IgV-Fc (inert) (Fc fusion) | 432 RLU | 432 RLU | – | – |
| CD80 H18Y/A26E/Q33L/E35D/M47L/L85Q IgV-Fc (inert) (Fc fusion) | 408 RLU | 408 RLU | – | – |
| CD80 Q33L/E35D/M47V IgV-Fc (inert) (Fc fusion) | 393 RLU | 393 RLU | – | – |
| CD80 E35D/M47I/K54R/L85E IgV-Fc (inert) (Fc fusion) | 602 RLU | 602 RLU | – | – |
| CD80 E24D/Q33L/E35D/M47V/K54R/L85Q IgV-Fc (inert) (Fc fusion) | 3240 RLU | 3240 RLU | – | – |
| CD80 A26E/E35D/M43I/M47L/L85Q/K86E/R94W IgV-Fc (inert) (Fc fusion) | 498 RLU | 498 RLU | – | – |
| CD80 V22A/E23D/Q33L/E35D/M47V IgV-Fc (inert) (Fc fusion) | 390 RLU | 390 RLU | – | – |
| CD80 Q33L/E35D/T41S/M43I IgV-Fc (inert) (Fc fusion) | 533 RLU | 533 RLU | – | – |
| CD80 Q27H/Q33L/E35D/M47V/N55D/L85Q/K89N IgV-Fc (inert) (Fc fusion) | 551 RLU | 551 RLU | – | – |
| CD80 A26E/E35D/M43T/M47L/L85Q/R94Q IgV-Fc (inert) (Fc fusion) | 526 RLU | 526 RLU | – | – |
| CD80 H18Y/Y31H/E35D/M47V/A71G/L85Q IgV-Fc (inert) (Fc fusion) | 455 RLU | 455 RLU | – | – |
| CD80 E35D/D46E/M47L/V68M/A71G/Y87C/K93R IgV-Fc (Fc fusion) | – | – | – | 24300 MFI |
| CD80 V22D/E24D/E35D/M47L/V68M IgV-Fc (Fc fusion) | – | – | 1250 MFI | 15400 MFI |
| CD80 H18L/V22A/E35D/M47L/N48T/L85Q IgV-Fc (inert) (Fc fusion) | 2650 RLU | 2650 RLU | – | – |
| CD80 H18Y/V20A/Q33L/E35D/M47V/Y53F IgV-Fc (inert) (Fc fusion) | 566 RLU | 566 RLU | – | – |
| CD80 V22D/E24D/E35D/M47L/V68M/L85M/D90G IgV-Fc (Fc fusion) | – | – | 1180 MFI | 19000 MFI |
